Test results as given in paper PMC2879526.
Positions count from the first letter of the chain named.

B1: rrm1 16-bp (THABS) (dsDNA)
DNA 1: GCTTGTGTGGGCAGCG
DNA 2: CGCTGCCCACACAAGC
B2: non-specific 16-bp DNA (dsDNA)
DNA 1: CGATTTGAATTTTAAC
DNA 2: GTTAAAATTCAAATCG

Assays:
[1] = target: T1, THAP zinc finger of hTHAP1 (C62S/C67S) (Homo sapiens, UniProt Q9NVV9 1-81, C62S;C67S); assay: fluorescence anisotropy
T1 sequence: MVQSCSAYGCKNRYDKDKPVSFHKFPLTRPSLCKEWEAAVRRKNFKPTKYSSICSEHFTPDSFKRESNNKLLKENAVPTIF

[2] = target: T2, THAP zinc finger of hTHAP1 K24A (Homo sapiens, UniProt Q9NVV9 1-81, K24A); assay: fluorescence anisotropy
T2 sequence: T1 sequence with K24A, S62C, S67C

Row | Binder | Kd [1] [nM] | binding result [2]
1 | B1 | 480 ± 60 | –
2 | B2 | – | binds
